Reference: publication PMC7069705

Molecular target: APC (full-length; APC-TMR when labeled) (Mus musculus, UniProt Q61315 1-2845)
Assay: single-molecule TIRF-M co-diffusion on microtubules

Sequence of APC (full-length; APC-TMR when labeled) (Q61315 whole entry, the tested form may be a part): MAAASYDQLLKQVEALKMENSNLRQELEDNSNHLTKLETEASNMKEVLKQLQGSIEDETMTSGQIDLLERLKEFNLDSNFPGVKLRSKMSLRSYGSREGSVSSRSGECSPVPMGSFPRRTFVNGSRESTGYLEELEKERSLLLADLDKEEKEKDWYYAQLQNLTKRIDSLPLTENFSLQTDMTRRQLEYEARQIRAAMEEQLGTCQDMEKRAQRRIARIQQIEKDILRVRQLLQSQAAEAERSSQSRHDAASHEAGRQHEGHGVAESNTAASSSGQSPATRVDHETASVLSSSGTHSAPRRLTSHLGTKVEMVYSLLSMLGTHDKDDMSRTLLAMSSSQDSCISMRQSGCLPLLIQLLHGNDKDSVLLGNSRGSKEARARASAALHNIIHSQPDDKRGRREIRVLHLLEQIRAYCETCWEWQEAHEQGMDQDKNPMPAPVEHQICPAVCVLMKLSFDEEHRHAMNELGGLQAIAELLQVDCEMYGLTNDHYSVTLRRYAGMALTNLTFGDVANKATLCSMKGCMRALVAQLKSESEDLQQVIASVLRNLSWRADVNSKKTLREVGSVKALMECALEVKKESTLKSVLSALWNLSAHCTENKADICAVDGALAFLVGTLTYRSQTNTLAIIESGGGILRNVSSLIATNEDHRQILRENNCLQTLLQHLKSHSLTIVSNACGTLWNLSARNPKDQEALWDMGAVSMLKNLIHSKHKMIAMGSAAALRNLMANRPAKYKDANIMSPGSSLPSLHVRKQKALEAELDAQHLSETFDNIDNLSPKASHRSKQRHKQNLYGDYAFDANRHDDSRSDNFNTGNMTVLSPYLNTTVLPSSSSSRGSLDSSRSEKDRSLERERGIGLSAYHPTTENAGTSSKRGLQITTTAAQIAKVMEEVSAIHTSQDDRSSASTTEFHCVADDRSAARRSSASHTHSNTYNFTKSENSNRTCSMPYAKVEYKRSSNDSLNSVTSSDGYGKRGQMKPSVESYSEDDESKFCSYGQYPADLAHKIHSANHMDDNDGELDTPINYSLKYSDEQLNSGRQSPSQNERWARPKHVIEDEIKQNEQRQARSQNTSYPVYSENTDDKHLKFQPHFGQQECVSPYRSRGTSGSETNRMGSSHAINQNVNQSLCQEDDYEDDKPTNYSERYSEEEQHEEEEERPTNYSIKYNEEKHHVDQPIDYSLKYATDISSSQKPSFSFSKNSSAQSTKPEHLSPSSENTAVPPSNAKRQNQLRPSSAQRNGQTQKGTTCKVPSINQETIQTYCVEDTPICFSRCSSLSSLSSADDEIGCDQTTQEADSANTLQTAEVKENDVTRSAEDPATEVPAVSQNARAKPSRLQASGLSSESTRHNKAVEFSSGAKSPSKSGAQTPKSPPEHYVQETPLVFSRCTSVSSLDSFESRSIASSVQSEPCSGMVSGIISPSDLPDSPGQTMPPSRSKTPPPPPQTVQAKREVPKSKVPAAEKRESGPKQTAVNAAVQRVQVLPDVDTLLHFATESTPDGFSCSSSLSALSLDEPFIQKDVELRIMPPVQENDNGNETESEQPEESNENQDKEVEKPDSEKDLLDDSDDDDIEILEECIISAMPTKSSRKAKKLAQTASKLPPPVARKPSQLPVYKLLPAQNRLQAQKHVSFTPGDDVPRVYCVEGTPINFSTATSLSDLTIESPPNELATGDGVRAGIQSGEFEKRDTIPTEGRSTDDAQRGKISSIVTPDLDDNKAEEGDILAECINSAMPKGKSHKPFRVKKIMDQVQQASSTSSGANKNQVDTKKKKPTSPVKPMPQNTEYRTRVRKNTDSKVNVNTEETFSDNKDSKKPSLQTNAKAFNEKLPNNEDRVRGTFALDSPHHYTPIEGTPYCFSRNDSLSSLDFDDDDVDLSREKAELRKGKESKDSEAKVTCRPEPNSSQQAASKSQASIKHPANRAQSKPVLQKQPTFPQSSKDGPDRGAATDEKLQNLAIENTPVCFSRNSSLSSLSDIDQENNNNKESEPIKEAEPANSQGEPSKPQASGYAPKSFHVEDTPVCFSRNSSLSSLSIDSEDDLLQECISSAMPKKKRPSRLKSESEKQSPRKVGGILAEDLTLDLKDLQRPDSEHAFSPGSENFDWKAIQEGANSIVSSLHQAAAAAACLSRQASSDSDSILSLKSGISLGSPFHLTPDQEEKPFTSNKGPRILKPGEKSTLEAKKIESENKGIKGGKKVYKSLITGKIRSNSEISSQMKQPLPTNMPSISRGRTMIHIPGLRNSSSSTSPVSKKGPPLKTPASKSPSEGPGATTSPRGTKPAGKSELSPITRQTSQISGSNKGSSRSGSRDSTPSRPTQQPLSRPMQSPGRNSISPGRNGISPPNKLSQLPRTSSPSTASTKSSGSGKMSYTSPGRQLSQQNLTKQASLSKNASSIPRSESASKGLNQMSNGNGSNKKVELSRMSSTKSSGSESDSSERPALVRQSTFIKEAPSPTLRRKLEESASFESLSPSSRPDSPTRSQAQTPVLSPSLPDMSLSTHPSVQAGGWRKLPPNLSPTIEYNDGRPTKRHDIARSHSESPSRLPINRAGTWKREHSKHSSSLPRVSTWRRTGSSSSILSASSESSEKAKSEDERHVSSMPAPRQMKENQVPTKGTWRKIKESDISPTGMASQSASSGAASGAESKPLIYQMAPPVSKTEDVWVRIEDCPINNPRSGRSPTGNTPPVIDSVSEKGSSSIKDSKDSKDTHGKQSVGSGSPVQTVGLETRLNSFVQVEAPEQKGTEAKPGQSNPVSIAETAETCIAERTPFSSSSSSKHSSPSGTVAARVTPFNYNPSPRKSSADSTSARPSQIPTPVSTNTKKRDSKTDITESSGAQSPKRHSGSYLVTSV

B1: β2Btubwt (ssRNA)
RNA: GUUCCCCAGGCCAAGCAGGUUAGGGAAAGCUGAGAUGAAAGGAGGGGGUGGGGGGGCUUAAUCUGUGAAAAUACCUUGGCAGUUGAA
B1: binds.
